Results on one molecule are retold here after PMC2213524 (The Journal of Experimental Medicine, 2000).

For this test, the target named is Histidine-tagged rat N-WASP (rat, UniProt O08816 1-501). In words: pull-down.
Sequence of Histidine-tagged rat N-WASP (O08816 whole entry): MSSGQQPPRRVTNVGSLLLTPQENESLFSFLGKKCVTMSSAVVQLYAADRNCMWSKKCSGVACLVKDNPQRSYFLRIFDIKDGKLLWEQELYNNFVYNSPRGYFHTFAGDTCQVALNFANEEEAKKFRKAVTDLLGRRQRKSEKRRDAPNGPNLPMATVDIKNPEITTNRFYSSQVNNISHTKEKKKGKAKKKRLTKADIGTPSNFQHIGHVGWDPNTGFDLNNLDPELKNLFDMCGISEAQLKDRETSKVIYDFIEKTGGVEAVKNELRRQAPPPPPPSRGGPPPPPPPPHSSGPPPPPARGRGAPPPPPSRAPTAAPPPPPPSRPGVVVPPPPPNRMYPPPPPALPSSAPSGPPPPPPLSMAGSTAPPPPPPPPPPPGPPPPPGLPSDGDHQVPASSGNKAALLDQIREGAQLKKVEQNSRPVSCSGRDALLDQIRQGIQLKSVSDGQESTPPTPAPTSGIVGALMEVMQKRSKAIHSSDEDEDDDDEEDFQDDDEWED

B1: Recombinant VirG-α1 protein (Thr53–Arg759 of VirG polypeptide) (domain or fragment, S. flexneri, UniProt Q7BCK4 53-759, looked up)
chain: TPLSGTQELHFSEDNYEKLLTPVDGLSPLGAGEDGMDAWYITSSNPSHASRTKLRINSDIMISAGHGGAGDNNDGNSCGGNGGDSITGSDLSIINQGMILGGSGGSGADHNGDGGEAVTGDNLFIINGEIISGGHGGDSYSDSDGGNGGDAVTGVNLPIINKGTISGGNGGNNYGEGDGGNGGDAITGSSLSVINKGTFAGGNGGAAYGYGYDGYGGNAITGDNLSVINNGAILGGNGGHWGDAINGSNMTIANSGYIISGKEDDGTQNVAGNAIHITGGNNSLILHEGSVITGDVQVNNSSILKIINNDYTGTTPTIEGDLCAGDCTTVSLSGNKFTVSGDVSFGENSSLNLAGISSLEASGNMSFGNNVKVEAIINNWAQKDYKLLSADKGITGFSVSNISIINPLLTTGAIDYTKSYISDQNKLIYGLSWNDTDGDSHGEFNLKENAELTVSTILADNLSHHNINSWDGKSLTKSGEGTLILAEKNTYSGFTNINAGILKMGTVEAMTRTAGVIVNKGATLNFSGMNQTVNTLLNSGTVLINNINAPFLPDPVIVTGNMTLEKNGHVILNNSSSNVGQTYVQKGNWHGKGGILSLGAVLGNDNSKTDRLEIAGHASGITYVAVTNEGGSGDKTLEGVQIISTDSSDKNAFIQKGRIVAGSYDYRLKQGTVSGLNTNKWYLTSQMDNQESKQMSNQESTQMSSRR
For the molecule B1, the “fold change of coprecipitated amount with Cdc42-G12V (GTPγS) against without” value is 1.2 fold.
